Measured values reported in paper PMC11459905, “Identification of SLC25A46 interaction interfaces with mitochondrial membrane fusogens Opa1 and Mfn2” (The Journal of Biological Chemistry, 2024).

Molecular target: T1, Strep-Opa1 (s-Opa1, amino acids 253-960), expressed in P. pastoris (human, UniProt O60313 253-960)
T1 construct: Opa1 (optic atrophy 1), human, residues 253-960 (s-Opa1); N-terminal Twin-Strep tag, HRV 3C cleavage site and (G4S)3 linker; The methods also name a tagged Opa1(263-960); also called optic atrophy 1; Opa1(253-960); source: P. pastoris SMD1163, in GDN extract (lysate); purified as a complex with SLC25A46 for cross-linking; not shown: Twin-Strep, N-terminal, kept
T1 sequence (looked up): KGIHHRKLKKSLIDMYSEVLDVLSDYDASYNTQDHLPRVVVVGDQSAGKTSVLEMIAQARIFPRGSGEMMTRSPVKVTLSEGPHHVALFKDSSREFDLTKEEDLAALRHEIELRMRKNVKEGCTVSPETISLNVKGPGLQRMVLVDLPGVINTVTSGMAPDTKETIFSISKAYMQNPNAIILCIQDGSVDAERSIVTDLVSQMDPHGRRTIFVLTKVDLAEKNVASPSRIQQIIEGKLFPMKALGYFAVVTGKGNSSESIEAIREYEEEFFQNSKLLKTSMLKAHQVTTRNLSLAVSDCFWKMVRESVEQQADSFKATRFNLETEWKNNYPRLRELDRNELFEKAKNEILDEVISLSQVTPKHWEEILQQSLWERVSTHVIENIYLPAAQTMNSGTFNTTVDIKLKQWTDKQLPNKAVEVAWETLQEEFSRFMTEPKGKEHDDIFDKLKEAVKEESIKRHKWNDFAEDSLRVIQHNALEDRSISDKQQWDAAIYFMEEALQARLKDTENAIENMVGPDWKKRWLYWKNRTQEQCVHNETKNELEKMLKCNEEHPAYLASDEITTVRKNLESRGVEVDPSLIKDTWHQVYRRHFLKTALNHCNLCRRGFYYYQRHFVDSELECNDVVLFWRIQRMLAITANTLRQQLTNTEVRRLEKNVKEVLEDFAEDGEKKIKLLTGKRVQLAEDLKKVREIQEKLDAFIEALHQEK
Assay: pull-down; GDN extracts of P. pastoris expressing or coexpressing the proteins; Strep-tagged Opa1 or Mfn2 held on StrepTactin XT 4Flow resin in a spin column, 4 °C, 25 mM Hepes, 150 mM NaCl, pH 8.0, washes with 0.1% GDN, elution with 50 mM biotin; Western blot; also with GTPγS, GMPPCP or GDP added to the lysates (no effect on coelution)
Details: partners not purified

binding result: binds
B1: Solute carrier family 25 member A46 with C-terminal deca-histidine (SLC25A46-His), wild type (natural protein, human, UniProt Q96AG3 1-418, looked up)
chain: MHPRRPDGFDGLGYRGGARDEQGFGGAFPARSFSTGSDLGHWVTTPPDIPGSRNLHWGEKSPPYGVPTTSTPYEGPTEEPFSSGGGGSVQGQSSEQLNRFAGFGIGLASLFTENVLAHPCIVLRRQCQVNYHAQHYHLTPFTVINIMYSFNKTQGPRALWKGMGSTFIVQGVTLGAEGIISEFTPLPREVLHKWSPKQIGEHLLLKSLTYVVAMPFYSASLIETVQSEIIRDNTGILECVKEGIGRVIGMGVPHSKRLLPLLSLIFPTVLHGVLHYIISSVIQKFVLLILKRKTYNSHLAESTSPVQSMLDAYFPELIANFAASLCSDVILYPLETVLHRLHIQGTRTIIDNTDLGYEVLPINTQYEGMRDCINTIRQEEGVFGFYKGFGAVIIQYTLHAAVLQITKIIYSTLLQNNI
notes: SLC25A46, human; gene synthesized (GenScript), cloned into pPICZ A; C terminus fused to (G4S)3 linker, TEV cleavage site and deca-histidine; only a pPICZ A (P. pastoris) construct of SLC25A46 is described; also called WT SLC25A46; source: P. pastoris SMD1163, in GDN extract (lysate); also recombinantly expressed and purified; not shown: His10, C-terminal, kept
